Measured values: patent publication US20230265215A1 (OMEROS, published 2023)

Assays:
[1] = target: human MASP-2 (endogenous, in normal human serum) (human, UniProt O00187 16-686); assay: cell-based or functional assay
[2] = target: T1, cynomolgus monkey MASP-2 (endogenous, in cynomolgus monkey serum) (cynomolgus monkey, UniProt O00187 16-686 (human entry), limits assumed); assay: cell-based or functional assay
[3] = target: T2, mouse MASP-2 (endogenous, in mouse serum or hirudin plasma) (mouse, UniProt Q91WP0 20-685); assay: cell-based or functional assay
T2 sequence (Q91WP0 20-685 limits assumed): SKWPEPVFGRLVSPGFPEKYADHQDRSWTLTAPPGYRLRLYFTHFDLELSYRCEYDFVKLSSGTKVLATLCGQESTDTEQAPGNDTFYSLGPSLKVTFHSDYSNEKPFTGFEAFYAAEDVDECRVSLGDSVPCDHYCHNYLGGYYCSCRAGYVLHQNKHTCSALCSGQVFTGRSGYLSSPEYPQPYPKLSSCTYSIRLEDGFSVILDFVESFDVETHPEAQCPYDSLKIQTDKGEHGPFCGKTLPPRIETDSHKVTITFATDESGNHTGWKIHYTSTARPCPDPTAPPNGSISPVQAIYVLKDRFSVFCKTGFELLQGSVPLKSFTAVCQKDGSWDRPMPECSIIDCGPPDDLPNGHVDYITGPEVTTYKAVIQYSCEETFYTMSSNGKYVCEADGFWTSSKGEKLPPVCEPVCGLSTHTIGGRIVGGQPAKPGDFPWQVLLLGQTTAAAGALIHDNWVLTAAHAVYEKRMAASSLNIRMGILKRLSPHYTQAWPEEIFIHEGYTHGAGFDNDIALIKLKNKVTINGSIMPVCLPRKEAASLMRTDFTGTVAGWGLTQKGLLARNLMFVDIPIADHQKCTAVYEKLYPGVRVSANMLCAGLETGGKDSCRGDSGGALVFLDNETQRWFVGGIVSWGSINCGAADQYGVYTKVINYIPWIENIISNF

[4] = target: dog MASP-2 (endogenous, in dog serum) (dog); assay: cell-based or functional assay
dog MASP-2 (endogenous, in dog serum) (dog), sequence (chain, as listed by the source limits assumed): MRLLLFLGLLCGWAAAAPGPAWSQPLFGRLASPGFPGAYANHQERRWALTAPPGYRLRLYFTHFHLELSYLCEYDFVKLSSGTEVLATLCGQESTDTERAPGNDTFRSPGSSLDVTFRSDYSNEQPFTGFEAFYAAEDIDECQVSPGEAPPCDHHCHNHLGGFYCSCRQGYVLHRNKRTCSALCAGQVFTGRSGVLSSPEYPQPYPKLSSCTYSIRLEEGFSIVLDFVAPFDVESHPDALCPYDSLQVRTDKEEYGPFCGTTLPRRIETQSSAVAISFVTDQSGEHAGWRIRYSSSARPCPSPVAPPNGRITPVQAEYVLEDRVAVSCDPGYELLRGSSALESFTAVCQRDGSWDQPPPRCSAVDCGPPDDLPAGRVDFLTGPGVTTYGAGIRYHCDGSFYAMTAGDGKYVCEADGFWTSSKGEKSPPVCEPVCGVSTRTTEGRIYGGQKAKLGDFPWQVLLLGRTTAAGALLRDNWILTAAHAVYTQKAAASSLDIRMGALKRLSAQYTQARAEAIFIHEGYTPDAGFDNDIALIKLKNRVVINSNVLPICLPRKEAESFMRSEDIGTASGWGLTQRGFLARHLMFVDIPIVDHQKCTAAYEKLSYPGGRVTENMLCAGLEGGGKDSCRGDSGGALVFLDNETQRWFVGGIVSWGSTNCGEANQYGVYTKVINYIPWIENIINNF

[5] = target: rabbit MASP-2 (endogenous, in rabbit serum) (rabbit); assay: cell-based or functional assay
[6] = target: T1, cynomolgus monkey MASP-2 (endogenous, …); assay: cell-based or functional assay; remark: listed apart in the source
[7] = target: T2, mouse MASP-2 (endogenous, in mouse …); assay: cell-based or functional assay; remark: listed apart in the source
[8] = target: T3, MASP-1 (human, UniProt P48740 20-699, limits assumed); assay: solid phase ELISA, immobilized protease, mean apparent KD of two lots
T3 construct: Species read from 'Recombinant human MASP-2 or C1r, C1s, CFD, MASP-1 and MASP-3'
T3 sequence (looked up): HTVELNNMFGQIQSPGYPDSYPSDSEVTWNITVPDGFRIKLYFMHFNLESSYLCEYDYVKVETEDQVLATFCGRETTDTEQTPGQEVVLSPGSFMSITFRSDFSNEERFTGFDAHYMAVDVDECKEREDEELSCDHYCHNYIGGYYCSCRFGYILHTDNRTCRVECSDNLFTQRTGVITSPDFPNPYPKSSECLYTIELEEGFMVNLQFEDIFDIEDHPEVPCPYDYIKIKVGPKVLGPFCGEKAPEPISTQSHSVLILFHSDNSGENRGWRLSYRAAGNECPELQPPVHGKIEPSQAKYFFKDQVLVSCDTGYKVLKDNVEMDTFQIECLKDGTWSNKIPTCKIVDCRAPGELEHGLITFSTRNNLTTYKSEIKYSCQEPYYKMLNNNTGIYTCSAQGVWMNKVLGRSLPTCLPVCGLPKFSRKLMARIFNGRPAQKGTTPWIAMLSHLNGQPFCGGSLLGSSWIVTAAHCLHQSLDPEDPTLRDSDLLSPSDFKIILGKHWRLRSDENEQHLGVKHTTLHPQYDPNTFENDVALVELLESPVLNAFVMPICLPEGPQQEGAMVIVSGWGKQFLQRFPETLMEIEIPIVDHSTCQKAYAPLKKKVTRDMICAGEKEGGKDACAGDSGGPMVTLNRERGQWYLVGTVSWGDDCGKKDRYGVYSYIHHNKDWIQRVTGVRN
Source text: (§1) The apparent dissociation constant (KD) was estimated by nonlinear regression using a 4-parameter logistic model.
(§2) Fold selectivity calculated as KD(related serine protease)/mean KD(MASP-2).

[9] = target: T4, C1r (human, UniProt P00736 18-705, limits assumed); assay: as above
T4 construct: Species read from 'Recombinant human MASP-2 or C1r, C1s, CFD, MASP-1 and MASP-3'
T4 sequence (looked up): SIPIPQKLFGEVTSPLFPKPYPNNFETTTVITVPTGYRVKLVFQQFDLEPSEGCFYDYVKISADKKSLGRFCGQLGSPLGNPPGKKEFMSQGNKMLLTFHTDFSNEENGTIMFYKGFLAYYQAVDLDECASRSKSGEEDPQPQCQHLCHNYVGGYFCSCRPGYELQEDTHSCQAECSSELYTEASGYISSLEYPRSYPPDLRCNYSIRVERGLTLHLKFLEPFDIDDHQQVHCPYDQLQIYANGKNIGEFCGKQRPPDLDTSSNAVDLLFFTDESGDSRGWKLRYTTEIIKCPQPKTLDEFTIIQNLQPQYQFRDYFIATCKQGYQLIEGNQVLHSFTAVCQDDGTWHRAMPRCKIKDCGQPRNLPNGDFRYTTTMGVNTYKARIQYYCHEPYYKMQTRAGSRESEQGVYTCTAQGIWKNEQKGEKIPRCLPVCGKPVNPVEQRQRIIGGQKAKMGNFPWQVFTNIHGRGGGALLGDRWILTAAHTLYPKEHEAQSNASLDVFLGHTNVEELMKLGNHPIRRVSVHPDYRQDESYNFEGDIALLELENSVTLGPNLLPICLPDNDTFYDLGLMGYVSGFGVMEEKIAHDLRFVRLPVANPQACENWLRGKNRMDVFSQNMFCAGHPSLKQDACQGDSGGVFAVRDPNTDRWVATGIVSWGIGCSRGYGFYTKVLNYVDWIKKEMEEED
Source text: as §1, §2

[10] = target: T5, C1s (human, UniProt P09871 16-688, limits assumed); assay: as above
T5 construct: Species read from 'Recombinant human MASP-2 or C1r, C1s, CFD, MASP-1 and MASP-3'
T5 sequence (looked up): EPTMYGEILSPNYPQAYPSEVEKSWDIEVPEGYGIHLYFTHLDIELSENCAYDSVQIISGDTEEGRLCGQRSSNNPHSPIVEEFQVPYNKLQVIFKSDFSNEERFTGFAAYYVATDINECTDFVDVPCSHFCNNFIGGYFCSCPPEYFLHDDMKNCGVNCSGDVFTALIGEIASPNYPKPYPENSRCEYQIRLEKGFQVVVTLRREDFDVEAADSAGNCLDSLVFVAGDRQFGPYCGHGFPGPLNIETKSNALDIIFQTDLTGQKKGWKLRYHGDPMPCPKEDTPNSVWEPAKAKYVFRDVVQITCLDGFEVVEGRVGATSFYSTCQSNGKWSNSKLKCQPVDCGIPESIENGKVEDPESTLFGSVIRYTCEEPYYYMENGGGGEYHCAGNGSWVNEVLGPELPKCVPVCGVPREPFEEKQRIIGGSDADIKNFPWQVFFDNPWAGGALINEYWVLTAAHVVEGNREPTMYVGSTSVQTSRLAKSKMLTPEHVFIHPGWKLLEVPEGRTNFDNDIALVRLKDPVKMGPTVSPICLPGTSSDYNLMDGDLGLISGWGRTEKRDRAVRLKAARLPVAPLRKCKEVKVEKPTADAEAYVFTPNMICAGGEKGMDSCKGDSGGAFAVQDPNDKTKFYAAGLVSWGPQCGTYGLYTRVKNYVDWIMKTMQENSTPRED
Source text: as §1, §2

human MASP-2 (endogenous, in normal human serum), sequence (O00187 16-686 limits assumed): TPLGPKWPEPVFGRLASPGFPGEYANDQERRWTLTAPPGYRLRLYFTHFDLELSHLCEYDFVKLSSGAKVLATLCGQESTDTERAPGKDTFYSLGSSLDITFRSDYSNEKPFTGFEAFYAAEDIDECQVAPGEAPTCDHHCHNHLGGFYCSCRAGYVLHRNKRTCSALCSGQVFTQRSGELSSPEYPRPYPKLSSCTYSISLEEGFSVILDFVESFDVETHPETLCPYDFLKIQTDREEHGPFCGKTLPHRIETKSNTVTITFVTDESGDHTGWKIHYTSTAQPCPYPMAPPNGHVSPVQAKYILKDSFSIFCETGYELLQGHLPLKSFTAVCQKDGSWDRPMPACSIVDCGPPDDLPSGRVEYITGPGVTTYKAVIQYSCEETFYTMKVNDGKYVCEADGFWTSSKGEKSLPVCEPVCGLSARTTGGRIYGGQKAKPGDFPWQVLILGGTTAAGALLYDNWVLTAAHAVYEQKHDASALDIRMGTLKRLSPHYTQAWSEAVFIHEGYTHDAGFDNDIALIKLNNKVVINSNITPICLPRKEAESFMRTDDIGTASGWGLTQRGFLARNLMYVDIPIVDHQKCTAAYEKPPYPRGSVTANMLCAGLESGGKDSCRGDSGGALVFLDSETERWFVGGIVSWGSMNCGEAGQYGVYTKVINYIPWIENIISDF
T1 sequence (O00187 other isoform, or with tags, fused parts or gaps limits assumed): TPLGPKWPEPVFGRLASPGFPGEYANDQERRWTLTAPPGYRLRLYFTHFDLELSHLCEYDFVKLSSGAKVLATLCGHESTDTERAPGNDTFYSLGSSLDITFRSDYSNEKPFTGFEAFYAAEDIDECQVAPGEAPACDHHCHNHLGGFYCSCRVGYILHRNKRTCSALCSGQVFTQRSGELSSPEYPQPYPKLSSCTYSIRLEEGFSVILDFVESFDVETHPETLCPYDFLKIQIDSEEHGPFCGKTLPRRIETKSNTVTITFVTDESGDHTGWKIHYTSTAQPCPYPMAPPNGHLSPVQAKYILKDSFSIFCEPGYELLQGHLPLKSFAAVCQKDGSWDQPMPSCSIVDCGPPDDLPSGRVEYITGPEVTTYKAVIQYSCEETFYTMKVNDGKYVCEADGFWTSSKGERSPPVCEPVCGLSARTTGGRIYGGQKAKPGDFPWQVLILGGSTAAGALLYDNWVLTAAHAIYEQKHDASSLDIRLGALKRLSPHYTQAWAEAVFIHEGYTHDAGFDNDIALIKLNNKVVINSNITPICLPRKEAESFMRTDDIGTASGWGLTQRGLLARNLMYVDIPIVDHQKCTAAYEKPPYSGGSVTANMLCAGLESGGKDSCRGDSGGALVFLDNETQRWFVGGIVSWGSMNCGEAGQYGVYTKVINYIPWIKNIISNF

B1: mAb OMS858 (humanized anti-MASP-2 antibody) (antibody, V domains shown)
VH: QVQLVQSGAEVKKPGASVKVSCKASGYTFTNHHMHWLRQAPGQGLEWIGDIDASDSETHYIEKFKDRATLTIDKSSSTAYMELSSLRSEDTAVYYCARGDITTTLRYFDVWGQGTLVTVSS
VL: DIQLTQSPSSLSASVGDRVTITCSASSSVRYMYWYQQKPGKAPKLLIYDTSNLASGVPSRFSGSGSGTDNTLTISSLQPEDFATYYCQQWSSYPLTFGQGTKVEIKR
notes: also called antibody OMS858; biotinylated OMS858
lectin-dependent C4 activation in 50% human serum, IC50, Experiment 1 [1]: 0.89 nM | lectin-dependent C4 activation in 50% human serum, IC50, Experiment 2 [1]: 0.86 nM | lectin-dependent C4 activation in 50% human serum, IC50, Experiment 3 [1]: 1.52 nM | lectin-dependent C4 activation in 50% human serum, IC50, MEAN [1]: 1.09 nM | lectin-dependent C4 activation in 50% cynomolgus monkey serum, IC50, Experiment 1 [2]: 42.8 nM | lectin-dependent C4 activation in 50% cynomolgus monkey serum, IC50, Experiment 2 [2]: 44 nM | lectin-dependent C4 activation in 50% cynomolgus monkey serum, IC50, Experiment 3 [2]: 45.5 nM | lectin-dependent C4 activation in 50% cynomolgus monkey serum, IC50, MEAN [2]: 44.1 nM | lectin-dependent C4 activation in 50% mouse hirudin plasma, IC50, Experiment 1 [3]: 9.59 nM | lectin-dependent C4 activation in 50% mouse hirudin plasma, IC50, Experiment 2 [3]: 11.2 nM | lectin-dependent C4 activation in 50% mouse hirudin plasma, IC50, Experiment 3 [3]: 14.8 nM | lectin-dependent C4 activation in 50% mouse hirudin plasma, IC50, MEAN [3]: 11.9 nM | lectin-dependent C4 activation in 50% dog serum, IC50, Experiment 1 [4]: > 500 nM | lectin-dependent C4 activation in 50% dog serum, IC50, Experiment 2 [4]: > 500 nM | lectin-dependent C4 activation in 50% dog serum, IC50, Experiment 3 [4]: > 500 nM | lectin-dependent C4 activation in 50% rabbit serum, IC50, Experiment 1 [5]: > 500 nM | lectin-dependent C4 activation in 50% rabbit serum, IC50, Experiment 2 [5]: > 500 nM | lectin-dependent C4 activation in 50% rabbit serum, IC50, Experiment 3 [5]: > 500 nM | Ratio (IC50-Query/IC50-Human), lectin-dependent C4 activation [6]: 40.5 fold | Ratio (IC50-Query/IC50-Human), lectin-dependent C4 activation [7]: 10.9 fold | Kd [8]: > 100 µg/mL | Kd [9]: > 100 µg/mL | Kd [10]: > 100 µg/mL
